Measured values from US20110008369A1 (Merck Sharp & Dohme, published 2011).

How the values were obtained:
[1] = target: T1, human PD-1 (Programmed Cell Death 1), expressed on cells (human, UniProt Q15116 25-288); assay: inhibition of recombinant PD-L1/Fc binding to 293 cells expressing human PD-1 by 20 ug/ml IgG, 4 C
T1 construct: also called human PD-1 on 293 cells
Protocol: (§1) 293 cells were transfected to express PD-1 on their cell membranes. Human CD4⁺ cells were activated by incubation with anti-CD3/anti-CD28 beads (approximately 1 bead: 1-2 cells) for 48-72 hours at 37° C. Rhesus CD4⁺ cells (2×10⁶ cells/mL) were activated by incubation in plates coated with 1 μg/mL anti-CD3/anti-CD28 for 24-72 hours at 37° C.

[2] = target: T2, rhesus PD-1 naturally expressed on activated rhesus CD4+ cells (rhesus macaque, UniProt B0LAJ2 25-288); assay: inhibition of recombinant PD-L1/Fc binding to activated rhesus CD4+ cells by 0.2 ug/ml IgG, 37 C (mean of 2)
T2 sequence (B0LAJ2 entry or part of it limits assumed): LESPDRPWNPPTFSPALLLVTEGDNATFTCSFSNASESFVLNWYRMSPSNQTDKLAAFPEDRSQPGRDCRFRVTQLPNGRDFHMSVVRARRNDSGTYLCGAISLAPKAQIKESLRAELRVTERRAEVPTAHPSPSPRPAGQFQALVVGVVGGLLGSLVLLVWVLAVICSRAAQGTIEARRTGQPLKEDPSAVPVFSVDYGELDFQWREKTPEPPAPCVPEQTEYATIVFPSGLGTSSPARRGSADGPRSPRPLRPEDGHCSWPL
Protocol: as §1

[3] = target: T3, homologous Fc (R&D Systems), Fc control surface (human, UniProt P01857-1 100-330 = IgG part, limits assumed); assay: SPR (Biacore 2000), Fc immobilised on a CM5 chip
T3 construct: domain: Fc; Counter-screen surface in the SPR assay; also called human Fc portion
Excerpt: Biacore® instruments incorporate microfluidics technology and surface plasmon resonance (SPR). The angle of polarized light reflecting from the side of a gold-coated sensor opposite to the solution phase is a function of the evanescent wave extending into the solution phase and sensitive to the refractive index near that interface. This refractive index is proportional to the mass density of adsorbates (e.g., an antigen or antibody) near the sensor chip interface, and reported in Response Units. […] Time-resolved signals were acquired from all surfaces simultaneously, and the signal from the blank control surface was subtracted as a negative control.

[4] = target: T2, rhesus PD-1 naturally expressed on …; assay: cell binding; 1.0 ug/ml IgG on activated rhesus CD4+ cells, 37 C
Protocol: as §1

[5] = target: T1, human PD-1 (Programmed Cell Death 1), …; assay: inhibition of recombinant PD-L1/Fc binding to activated human CD4+ cells by 0.2 ug/ml IgG, 37 C (mean of 2)
Protocol: as §1

[6] = target: T1, human PD-1 (Programmed Cell Death 1), …; assay: cell binding; 0.2 ug/ml IgG on activated human CD4+ cells, 37 C
Protocol: as §1

[7] = target: T4, recombinant human PD-1/Fc fusion protein (R&D Systems) (human, UniProt Q15116 25-167); assay: SPR (Biacore T100), monomeric Fab over covalently immobilised PD-1/Fc; range of fit Kd
T4 construct: Bought protein; also called immobilized PD-1; not shown: human Fc portion of the bought fusion protein
T4 sequence (Q15116 25-167 limits assumed): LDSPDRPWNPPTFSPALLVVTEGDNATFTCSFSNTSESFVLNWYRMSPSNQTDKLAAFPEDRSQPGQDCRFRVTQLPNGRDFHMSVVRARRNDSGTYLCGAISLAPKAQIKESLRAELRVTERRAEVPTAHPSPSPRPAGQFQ
Excerpt: Fractions from the purification column were collected and tested in the Caliper LabChip® system. Only fractions containing pure monomeric Fabs were selected for SPR analysis. Beginning with concentrations determined from the Caliper LabChip®, dilution series were made for each Fab and tested on a Biacore® T100 with the standard kinetic affinity wizard against covalently immobilized PD-1/Fc fusion protein.

[8] = target: T4, recombinant human PD-1/Fc fusion …; assay: solution-phase ELISA of IgG with PD-1/Fc; mean ± standard error of the mean
Protocol: High-binding 96-well ELISA plates were coated with 50 μL 2 μg/mL PD-1/Fc overnight. After washing and blocking, 50 μL of each PD-1/Fc: IgG mixture was transferred to the ELISA plate, incubated for 30 minutes, washed, incubated with goat anti-mouse antibody conjugated to HRP (human absorbed) for one hour, washed, developed with 10-Acetyl-3,7-dihydroxyphenoxazine ([…]) for three minutes, and read on a fluorescent plate reader. All incubations occurred at room temperature. Data were analyzed as described in K. High et al. Several replicates were conducted on multiple plates and multiple days and analyzed independently to determine a range of experimental equilibrium affinity Kd values.

T1 sequence (Q15116 25-288 limits assumed): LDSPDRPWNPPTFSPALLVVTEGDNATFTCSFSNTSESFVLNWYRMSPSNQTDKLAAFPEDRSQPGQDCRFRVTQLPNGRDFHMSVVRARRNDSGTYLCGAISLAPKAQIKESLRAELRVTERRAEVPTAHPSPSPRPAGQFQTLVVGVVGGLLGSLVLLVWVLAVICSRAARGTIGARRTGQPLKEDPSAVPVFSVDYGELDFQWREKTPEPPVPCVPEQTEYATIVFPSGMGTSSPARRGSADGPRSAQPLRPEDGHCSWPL

% inhibition [2] [%]	MFI [4] [MFI]	Kd [7] [nM]	Kd [8] [nM]	Binder	% inhibition [1] [%]	binding result [3]	% inhibition [5] [%]	MFI [6] [MFI]
56.5	812	–	–	mAb 1G7 (antibody, V domains shown, Murine IgG from a hybridoma) VH: EIQLQQSGPELVKPGASVKVSCKASGYAFTSYNIYWVKQSHGKSLEWIGYIDLYNGDTSYNEKFKGKATLTVDKSASTAYMHLNSLTSEDSAVYYCSREGRLSFDYWGQGTLVTVSA VL: DIVLTQSPASLAVSLGQRATISCRASESVDSYGNSFMNWYQQKPGQPLKLLIYLASNLDSGVPARFSGSGSGTDFSLTIDPVEADDPATYYCQQNNEVPLTFGAGTKLELKR	98.8	no binding (tested: 5 ug/mL (hybridoma supernatant))	74.3	137
–	–	63 to 77	–	monomeric Fab of mAb 3H4 (Fab, V domains shown, also called 3H4 Fab) VH: QIQLQQSGPELVKPGASVKISCKASGYTFTDYYINWVKQKPGQGLEWIGWIYPGSVNTKYNEKFRGKATLTVDTSSSTAYIQLSGLTSEDTAVYFCARYSNWFFDVWGAGTAVTVS VL: DIVMTQSPSSLSASLGERVSLTCRASQEISGYLSWLQQKPDGTIKRLIYAASTLDSGVPKRFSGSRSGSDYSLSISSLESEDFADYYCLQYASYPYTFGGGTKLEIKR	–	–	–	–
–	–	–	0.011	mAb 3H4 (antibody, V domains shown, Murine IgG from a hybridoma) VH: QIQLQQSGPELVKPGASVKISCKASGYTFTDYYINWVKQKPGQGLEWIGWIYPGSVNTKYNEKFRGKATLTVDTSSSTAYIQLSGLTSEDTAVYFCARYSNWFFDVWGAGTAVTVS VL: DIVMTQSPSSLSASLGERVSLTCRASQEISGYLSWLQQKPDGTIKRLIYAASTLDSGVPKRFSGSRSGSDYSLSISSLESEDFADYYCLQYASYPYTFGGGTKLEIKR	–	no binding (tested: 5 ug/mL (hybridoma supernatant))	–	130
25.5	655	–	–	mAb 7G3 (antibody, V domains shown, Murine IgG from a hybridoma) VH: QVQLQQSGTELVRPGVSVKISCKGSGYSFTDYALHWMKQSHAKSLEWIGVISTHYGDTVYNQRFKGKATMTVDKSSSTAYMELARLTSEDSAIYYCAREGYGSLFYFDQWGQGTPLTVS VL: CLMTQTPLSLPVSLGDQASISCRSSQTIVHSDGNTYLEWYLQKSGQSPKLLIYKVSNRFSGVPDRFSGSGSGTDFTLKISRVEAEDLGVYYCFQGSHVPYTFGGGTRLEIRR	92.7	no binding (tested: 5 ug/mL (hybridoma supernatant))	57.8	129
24	310	–	0.44	mAb 1.8A10 (antibody, V domains shown, Murine IgG from a hybridoma) VH: EVQLVESGGGLVKPGGSLKLSCAASGFTFSNYDMSWIRQTPEKRLEWVAYISGGGGNTYYPDTLKGRFTISRDNAKNTLYLQMSSLKSEDTAMFYCVRISLTGIFDYWGQGTTLTVSS VL: DVLMTQTPLSLPVSLGDQASISCRSSQSIVQSNGNTYLEWYLQKPGQSPKLLIYKVSNRFSGVPDRFSGSGSGTDFTLKISRVEAEDLGVYYCFQGSHVPWTFGGGTKLEIKR	99.4	no binding (tested: 5 ug/mL (hybridoma supernatant))	51.7	129
–	–	34 to 43	–	monomeric Fab of mAb 1.8A10 (Fab, V domains shown, also called 1.8A10 Fab) VH: EVQLVESGGGLVKPGGSLKLSCAASGFTFSNYDMSWIRQTPEKRLEWVAYISGGGGNTYYPDTLKGRFTISRDNAKNTLYLQMSSLKSEDTAMFYCVRISLTGIFDYWGQGTTLTVSS VL: DVLMTQTPLSLPVSLGDQASISCRSSQSIVQSNGNTYLEWYLQKPGQSPKLLIYKVSNRFSGVPDRFSGSGSGTDFTLKISRVEAEDLGVYYCFQGSHVPWTFGGGTKLEIKR	–	–	–	–
75.3	1240	–	–	mAb 20B3.1 (antibody, V domains shown, Murine IgG from a hybridoma) VH: EVKLVESGGGLVKPGGSLKLSCAASGFTFSSFGMSWVRQTPEKRLEWVATISGGGSNTYYPDSVKGRFTISRDNAKNNLYLQMTSLTSEDTALYYCTRIYDVAWFAYWGQGTLVTVS VL: not shown	98.2	no binding (tested: 5 ug/mL (hybridoma supernatant))	59.6	154
–	–	5.3 to 7	–	monomeric Fab of mAb 1B8 (Fab, V domains shown, also called 1B8 Fab) VH: EVQLVLSGGGFVQPGGSLKLSCAASGFTFSSYAMSWVRQNPERRLVWVATITGGGRNTYYPDSVKGRFTISRDNAKNTLYLQMSSLRSEDTAMYYCTRQGYDGYTWFAYWGQGTLVTVS VL: not shown	–	–	–	–
82.3	1190	–	0.03	mAb 1B8 (antibody, V domains shown, Murine IgG from a hybridoma; also called murine 1B8; fully murine 1B8 mAb) VH: EVQLVLSGGGFVQPGGSLKLSCAASGFTFSSYAMSWVRQNPERRLVWVATITGGGRNTYYPDSVKGRFTISRDNAKNTLYLQMSSLRSEDTAMYYCTRQGYDGYTWFAYWGQGTLVTVS VL: not shown	97.6	no binding (tested: 5 ug/mL (hybridoma supernatant))	82.1	145
–	–	–	–	mAb 2.3A9 (antibody, V domains shown, Murine IgG from a hybridoma) VH: QVQLQQSDAELVKPGTSVKISCKASGYTFTDHAIHWLKQEPDQGLEWIGYISPGYGDIEYNEKFKGKATLTADKSSSTAYMQLSSLTSEDSAVYFCKVTTGYWGQGTTLTVS VL: not shown	–	no binding (tested: 5 ug/mL (hybridoma supernatant))	–	134
